Measurements: the supplement of paper PMC12042874
± gives the uncertainty stated by the source.

Experiment: amyloid nucleation score (Sup35N fusion, yeast selection) (log enrichment); library NNK1; higher = more nucleation; inactive = no reads after selection
How it was run: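 DiMSum was used to calculate nucleation scores as log enrichment of output over input reads, centred on the mode score of non-aggregating sequences. Sequences with fewer than 100 input reads were not scored. Input and output came from Illumina sequencing of plasmid inserts in psi-negative yeast expressing peptides of 20 random codons fused to Sup35N, induced 24 hours with 100 μM copper sulfate and then grown 7 days at 30°C on medium lacking adenine and uracil.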

| Substance | amyloid nucleation score |
| --- | --- |
| TLSLNYRFNLKERFLVSGLI | -0.733 ± 0.38 |
| TLTPTILILFNFIT | 4.68 ± 0.052 |
| TLTVSGAADIITFGSTIVVG | 0.193 ± 1.5 |
| TLVKLVVTIGLDIKDCGFVI | 0.018 ± 0.18 |
| TLVYY | 0.296 ± 0.47 |
| TLWTWTSYRVVLYSSSVKLG | -0.451 ± 0.32 |
| TLYLPGLKPTRHECMDLHQG | inactive |
| TMRLNQCPLNSFPTLFLYER | -0.602 ± 0.31 |
| TMVFCRI | 0.23 ± 0.79 |
| TMYTVVPNHWNNISFRALSR | -0.909 ± 0.74 |
| TNCGITFVFTPIPRATTWSN | 5.37 ± 0.083 |
| TNELCMYCLGHLGY | 0.694 ± 0.84 |
| TNFANHRLGDPIMYSFHKGV | -0.74 ± 0.37 |
| TNGWTQHKYKYRSFSGHFII | inactive |
| TNHDMAINLVQQLDC | 1.67 ± 0.61 |
| TNIFMSFKFLISSLRCFPER | 4.68 ± 0.12 |
| TNILVAYRVISNGSTTPPRR | 3.56 ± 0.15 |
| TNRKIQSLPTVCVCIRGSSG | 2.95 ± 0.11 |
| TNSKSSSVGSKATQHN | 0.077 ± 0.35 |
| TNTLLTPGCGINAIGVALYV | -0.628 ± 0.3 |
| TNTSHVLTLESCSCRERVSR | 0.969 ± 0.55 |
| TPDHLWLWLFYLNCNTENYG | 7.757 ± 0.046 |
| TPSLAEADCL | -0.909 ± 2.7 |
| TQCCGS | -0.448 ± 1.7 |
| TQCSFAANQF | 0.768 ± 0.39 |
| TQRVIGERRMNADCRACRLR | -0.061 ± 1.6 |

| Substance | amyloid nucleation score |
| --- | --- |
| TRCPV | 0.253 ± 0.66 |
| TRHWVIRQVSSTRDKYTKHA | 0.217 ± 0.66 |
| TRLLRVGRSNFSLNEHSDRI | -0.376 ± 0.9 |
| TRLRTYKCLQMGDYHVSSFK | 0.672 ± 0.79 |
| TRNSDNVWKFEGVFHNLETW | 0.43 ± 0.48 |
| TRNVQHRIRSKSTISDKQIF | inactive |
| TRSGYAHARSSAAQSFTL | 0.622 ± 0.33 |
| TRTKSGFSLYVRR | 1.1 ± 0.71 |
| TRVSFYRSKFAFMFYYHVMV | 0.099 ± 0.79 |
| TRWLILWNLAGPTGCYFRIL | 0.063 ± 0.63 |
| TSAGKYHSSIILLYLWDYVT | 0.845 ± 0.41 |
| TSALWEVLW | 0.191 ± 0.58 |
| TSASYRADVWDDGNVLYRLW | inactive |
| TSDNGKNAQGWGM | 0.145 ± 1 |
| TSELNSYSTCFHSDGLSMNR | inactive |
| TSGIYRRSDFLERHIS | 0.993 ± 0.71 |
| TSLCCSYWFSSVIGFSGYCG | 1.89 ± 0.28 |
| TSLYQAYSIYSFRYYIAYMC | 0.232 ± 0.68 |
| TSPPSKIAVRCGWDSMSLR | 0.309 ± 0.6 |
| TSRRAEYRWSYQEKSGSSRS | 1.26 ± 0.45 |
| TSSRCRYMFFLRHIFCKILK | inactive |
| TSSSRSIDR | 0.16 ± 0.35 |
| TSVHDRQELRDRLV | 0.69 ± 0.32 |
| TTKAVRCYRNIMCSTILGRS | -0.015 ± 0.31 |
| TTNMRLFLLYNTTLVMSFNV | 1.88 ± 0.16 |
| TTRMRRRY | 1.89 ± 0.56 |

| Substance | amyloid nucleation score |
| --- | --- |
| TTRSSGIFSDEGKQACSDRG | 0.091 ± 0.74 |
| TTSYHTNGRAVRIVYPFANS | -0.096 ± 0.6 |
| TTVGNVFSGVHV | 0.027 ± 1.7 |
| TTVRGASANHVLTCYCPHYL | 0.601 ± 0.82 |
| TTYHCGP | 0.039 ± 1.5 |
| TVAGVR | 0.174 ± 0.4 |
| TVDVPLAASSNKYKFMFYCE | 3.92 ± 0.098 |
| TVFMVKDRVILRFGRGLKAW | -1.09 ± 1.1 |
| TVKDNHVLEEFVTFYVVYKS | -0.013 ± 0.27 |
| TVLFV | 0.298 ± 0.38 |
| TVLIILRALLNSSPKTFD | 0.387 ± 0.22 |
| TVLPF | 1.6 ± 0.55 |
| TVLWWSSGDSGSCWYYCKIE | -0.177 ± 0.31 |
| TVMSNHGHLMKYYFVRLEGF | 0.759 ± 0.62 |
| TVNRG | 0.409 ± 1.4 |
| TVNTYSANDYVRTMVCELSV | inactive |
| TVNVFFLQACSRSC | 7.73 ± 0.06 |
| TVRGGLY | -1.04 ± 0.62 |
| TVTDYKTYASLLFGTKTYAI | 2.17 ± 0.47 |
| TVTGFMF | -0.645 ± 1.7 |
| TWCCEVNAAVEHG | -1.17 ± 1.1 |
| TWCTV | 0.082 ± 0.28 |
| TWIEDCSYYEMYTGPERTLT | -0.282 ± 0.46 |
| TWNTL | -0.343 ± 0.4 |
| TWNVMYRIRF | 2.04 ± 0.23 |
| TWRFVFCFFWTRGPRLLICA | -0.768 ± 0.37 |

| Substance | amyloid nucleation score |
| --- | --- |
| TWRLDIFGGRRGRVASRKKW | -0.076 ± 0.96 |
| TWTLL | 1.18 ± 0.63 |
| TWWCV | -0.285 ± 0.27 |
| TYEPKGRLPCWCSAQSMGCL | -0.096 ± 0.34 |
| TYHFCLFMSYSGSNRAALCN | -0.212 ± 1 |
| TYMTSTMQLRHTFFRSQANL | 2.7 ± 0.098 |
| TYNCILNSCSSSYTKVLV | 0.703 ± 0.24 |
| TYNYFCGLVIVVVNGVHLRV | 5.507 ± 0.047 |
| TYPYFDWPFRTRRLMEVSET | -0.4 ± 0.63 |
| TYTCPVGNWVRMEGDLYFLA | -0.847 ± 1.3 |
| TYVCDMEHSVYCYYVEAQLY | 0.49 ± 0.4 |
| TYWEMVHWGQEASMGSIRRR | 1.97 ± 0.24 |
| VAASFCYIYRRYPSLFLGSR | 0.422 ± 0.53 |
| VACLKRW | -0.29 ± 0.42 |
| VACNIGHSYVNYYCRGIILC | 0.586 ± 0.4 |
| VACRRTSKGEYYFQSMICDL | inactive |
| VAEWRSMNVGVGRATIEGLS | 0.579 ± 0.28 |
| VALDSSLHTSVYRIVSLSIG | -0.159 ± 0.52 |
| VALLKWFRIWVSFANCLWGR | 0.128 ± 0.99 |
| VASYFGLVRNSNLDLYLHCR | -0.131 ± 0.23 |
| VAYRVFCD | 0.51 ± 0.36 |
| VCCSATISTIVFSYFYTGKR | 7.506 ± 0.053 |
| VCILFSAPDNMWFFSD | 1.49 ± 0.45 |
| VCTNRYGPCSPS | 4.26 ± 0.09 |
| VCVHDLCSLIQLGAYVMRET | 0.383 ± 0.29 |
| VCVWCKISPSTYCALIFGDL | -0.181 ± 0.32 |

| Substance | amyloid nucleation score |
| --- | --- |
| VCYVAMLNHTSPMSLASSAR | inactive |
| VDIKFFMGLAFMWRYSSTAD | -0.063 ± 0.39 |
| VDMNWVITGTNWEFRLRVDA | 0.24 ± 0.43 |
| VDNDLGQLPGMW | -0.561 ± 1.7 |
| VDNIYAGVELLFSCKM | -0.331 ± 0.28 |
| VDNVRPWRGYQPHSLVLPIV | 0.516 ± 0.47 |
| VDQVQDNLKFEIGKYSYWYS | 0.128 ± 0.27 |
| VDRILFNVLAVSFDMELRSL | 0.224 ± 0.24 |
| VDSLITRSWVDHHNKYNHGI | 0.635 ± 0.64 |
| VDVYFTSAMLSRLGLVGAVA | 0.862 ± 0.64 |
| VECSCKLRLAASGGNYRGWG | 2.3 ± 0.25 |
| VEDENKDSVIKVEKLLPHNL | -0.342 ± 0.29 |
| VEEAYER | -0.485 ± 0.5 |
| VEGRVSEFGRLHMSCYTGLR | -0.076 ± 0.48 |
| VELLIEFLSRLGWIGCRHVL | 0.08 ± 0.86 |
| VEMNFSFVGR | 2.62 ± 0.23 |
| VEVATPLTGSLQLPASYIMP | inactive |
| VFAFA | 0.126 ± 0.48 |
| VFASGAAGTKFWR | 0.302 ± 0.27 |
| VFAVERCDFSLRPNVMLVSY | 1.08 ± 0.92 |
| VFHAAVM | -0.192 ± 0.93 |
| VFHSMC | 0.761 ± 0.39 |
| VFNVV | -0.605 ± 0.52 |
| VFRALKRVISRTYCMISFLK | 0.458 ± 0.79 |
